Assay results taken from US20240398864A1.

Molecular target: mERK2 9m peptide (synthetic short-chain peptide for CD8-positive T-cell stimulation, …) (mouse)
Assay: cell-based or functional assay

percentage of IFN-γ-producing cells in CD90.1-positive CD8-positive infused T cells of the draining lymph node after stimulation with mERK2 9m peptide (intracellular cytokine staining): 80%
Substance: mutated ERK2-specific T-cell receptor of DUC18 transgenic mice, on CD8-positive T cells (TCR)
